What was measured:
MAZ [1] = molecular target: T1, MAZ (UniProt P56270 P56270:1-477); assay: footprint; two MAZ sites; details: tags: prepared as in Parks and Shenk 1996; label: 5' end label in luciferase coding region
T1 sequence: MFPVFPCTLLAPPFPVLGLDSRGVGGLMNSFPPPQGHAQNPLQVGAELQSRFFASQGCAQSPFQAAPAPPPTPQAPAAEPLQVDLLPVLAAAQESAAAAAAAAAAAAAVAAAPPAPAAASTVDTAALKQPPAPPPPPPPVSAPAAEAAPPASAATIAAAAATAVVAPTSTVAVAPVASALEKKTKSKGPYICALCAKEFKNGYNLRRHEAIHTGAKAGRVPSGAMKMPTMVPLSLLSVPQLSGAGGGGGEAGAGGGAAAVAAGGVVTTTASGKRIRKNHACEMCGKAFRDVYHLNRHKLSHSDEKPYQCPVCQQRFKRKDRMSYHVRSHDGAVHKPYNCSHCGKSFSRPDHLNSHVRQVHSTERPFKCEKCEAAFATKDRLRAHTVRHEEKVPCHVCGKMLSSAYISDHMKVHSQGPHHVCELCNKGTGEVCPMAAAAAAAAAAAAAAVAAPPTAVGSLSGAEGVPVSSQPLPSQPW

Sp1 [2] = molecular target: T2, Sp1 (UniProt P08047 P08047:2-785); assay: footprint; one Sp1 site (-18GC); details: tags: Promega; label: 5' end label in luciferase coding region
T2 sequence (P08047 2-785, one chain of several): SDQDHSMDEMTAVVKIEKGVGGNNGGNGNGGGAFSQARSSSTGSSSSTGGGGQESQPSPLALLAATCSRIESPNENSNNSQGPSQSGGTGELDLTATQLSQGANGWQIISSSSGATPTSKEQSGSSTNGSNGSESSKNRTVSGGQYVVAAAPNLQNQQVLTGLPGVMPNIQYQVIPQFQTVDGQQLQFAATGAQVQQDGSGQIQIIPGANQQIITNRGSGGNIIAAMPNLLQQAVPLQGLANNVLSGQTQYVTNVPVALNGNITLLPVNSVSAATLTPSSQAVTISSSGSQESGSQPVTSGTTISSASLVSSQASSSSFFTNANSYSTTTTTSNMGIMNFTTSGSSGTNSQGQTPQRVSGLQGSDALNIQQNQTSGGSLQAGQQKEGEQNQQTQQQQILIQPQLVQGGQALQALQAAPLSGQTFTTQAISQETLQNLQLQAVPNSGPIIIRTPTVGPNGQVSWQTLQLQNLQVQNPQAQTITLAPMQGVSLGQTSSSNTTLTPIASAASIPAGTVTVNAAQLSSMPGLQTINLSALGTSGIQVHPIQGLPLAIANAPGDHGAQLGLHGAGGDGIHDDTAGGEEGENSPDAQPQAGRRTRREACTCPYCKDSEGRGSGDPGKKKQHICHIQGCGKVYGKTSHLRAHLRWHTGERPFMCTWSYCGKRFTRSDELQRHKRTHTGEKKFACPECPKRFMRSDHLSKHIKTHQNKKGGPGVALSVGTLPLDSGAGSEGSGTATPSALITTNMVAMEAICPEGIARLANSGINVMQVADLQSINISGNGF

Sp1 [3] = molecular target: T2, Sp1; assay: footprint; Sp1 footprint not altered; details: tags: Promega; label: 5' end label in luciferase coding region
Sp1 [4] = molecular target: T2, Sp1; assay: footprint; interaction completely blocked; details: tags: Promega; label: 5' end label in luciferase coding region
MAZ [5] = molecular target: T1, MAZ; assay: footprint; interaction substantially blocked; details: tags: prepared as in Parks and Shenk 1996; label: 5' end label in luciferase coding region
Sp1 [6] = molecular target: T2, Sp1; assay: footprint; interaction substantially blocked; details: tags: Promega; label: 5' end label in luciferase coding region

B1: minimal MLP wild type (dsDNA)
DNA 1: TGAAGGGGGGCTATAAAAGGGGGTGGGGGCGCGTTCGTCCTCACTCTCTTCC
DNA 2: GGAAGAGAGTGAGGACGAACGCGCCCCCACCCCCTTTTATAGCCCCCCTTCA
B1: binds (MAZ [1]); binds (Sp1 [2]).

B2: minimal MLP M2 (-36GC mutant) (dsDNA)
DNA 1: TGTTGTTGTTCTATAAAAGGGGGTGGGGGCGCGTTCGTCCTCACTCTCTTCC
DNA 2: GGAAGAGAGTGAGGACGAACGCGCCCCCACCCCCTTTTATAGAACAACAACA
B2: binds (Sp1 [3]).

B3: minimal MLP M1 (-18GC mutant) (dsDNA)
DNA 1: TGAAGGGGGGCTATAAAAGTGTGTGTGTGTGTGTTCGTCCTCACTCTCTTCC
DNA 2: GGAAGAGAGTGAGGACGAACACACACACACACACTTTTATAGCCCCCCTTCA
B3: no binding (Sp1 [4]).

B4: minimal MLP M3 (-18GC and -36GC mutant) (dsDNA)
DNA 1: TGTTGTTGTTCTATAAAAGTGTGTGTGTGTGCGTTCGTCCTCACTCTCTTCC
DNA 2: GGAAGAGAGTGAGGACGAACGCACACACACACACTTTTATAGAACAACAACA
B4: no binding (MAZ [5]); no binding (Sp1 [6]).

Source: patent US20020055173, “Method for preparing adenovirus vectors, vectors so prepared, and uses thereof” (published 2002)
